Test results taken from US12606635B2, “Glypican-2-binding moieties, chimeric antigen receptors and uses thereof” (Nanjing Legend Biotech Co., Ltd., priority 2020, dated 2026).

Columns and labels:
[1] = system: human neuroblastoma cell line SH-SY5Y; test: In vitro cytotoxicity assay (LDH), SH-SY5Y; format: cell-based; details: for specific percentage lysis: SH-SY5Y, effector to target ratio 10:1, 20 hours, FIG. 8A
Description: (§1) The pre-activated T cells were transduced with lentivirus stock in the presence of […] polybrene and 300 IU/mL IL-2. T cells and lentivirus were centrifuged at 1000 g, 32° C. for 1 h and placed in humidified cell culture incubator for transgene expression under suitable conditions. On day 5 or day 7 or day 10 post-transduction, transduced T cells were harvested and co-incubated with tumor cells at an effector (CAR T) to target cell ratio of 10:1 or 5:1 or 2:1 or 1:1 or 0.2:1 for 20 hours. Target cells were human neuroblastoma cell line SH-SY5Y (ATCC, #CRL-2266), human neuroblastoma cell line IMR-32 cells (ATCC, #CCL-127), or human epidermoid carcinoma cell line A-431 (ATCC, #CRL-1555). To assay the cytotoxicity of CAR T cells on tumor cells, the Cytotoxicity Detection Kit (LDH) (Roche, #11644793001) assay reagents were prepared according to manufacturer's protocol. Reaction mix was added to the cell-free supernatant of each sample to detect the LDH released from cells. Optical densities at OD492 nm and OD650 nm were measured by PHERStar Microplate Reader. Baseline LDH released from the target cell in the absence of effector cells and effector cell in the absence of target cells were subtracted from the total LDH amount. The target maximum release was obtained by adding Triton-X100 at a final concentration of 1% to target cells in the absence of effector cells at the time when the cytotoxicity assays initiated. Supernatant from target cells in the absence of effector cells was used for target minimum release. The specific cytotoxicity was calculated by the formula: % Target cell lysis=100*[(OD CAR T cell+Target cell)−(OD CAR T cell)−(OD Target cell)+(OD Buffer background)]/(OD Target Maximum release−OD Target Minimum release).
(§2) On day 5 or day 8 or day 10 post-transduction, transduced T cells were harvested and co-incubated with tumor cells at an effector (CAR T) to target cell ratio of 10:1 or 1:1 or 0.2:1 for 20 hours. To assay the cytotoxicity of CAR T cells on tumor cells, the Cytotoxicity Detection Kit (LDH) (Roche, #11644793001) was added to the culture supernatant and the specific cytotoxicity for each CAR T cell construct was measured as described in Example 6.

[2] = system: human neuroblastoma cell line IMR-32; test: In vitro cytotoxicity assay (LDH), IMR-32; format: cell-based; details: for cytolytic activity compared with monovalent CAR T cells: co-cultured with IMR-32, FIG. 8C
Description: as §1, with “Supernatant from target cells in the absence of effector cells was used for target minimum release.” left out
as §2

SH-SY5Y = test: IFNγ release in co-culture with SH-SY5Y; format: cell-based, human; details: Example 7, co-culture with SH-SY5Y, FIG. 8D-8F
Description: (§3) In addition to the cytotoxicity data above, supernatants from the in vitro co-culture assays were also collected to assess CAR T cells-induced cytokine release, e.g., release of interferon gamma (i.e., IFNγ), as another indicator of cytotoxicity, was quantified using a HTRF human IFNγ AlphaLISA kit (Perkin Elmer, #62HIFNGPEH) per manufacturer's instruction. […] No significant cytokine release were detected against GPC2-negative cell line A-431.
(§4) Supernatants from the in vitro co-culture assays were collected to assess CAR T cells-induced cytokine release, e.g., interferon gamma (i.e., IFNγ) release as described in Example 6. […] IFNγ was not induced in GPC2-negative A-431 cells. […] Cytokine release data was consistent with the in vitro cytotoxicity data.

IMR-32 = test: IFNγ release in co-culture with IMR-32; format: cell-based, human; details: Example 7, co-culture with IMR-32, FIG. 8D-8F
Description: as §3, §4

[3] = 1:1 effector to target ratio, FIG. 8B

B1: CAS72052VH5-AS71529VH5-BBz: bivalent tandem anti-GPC2 CAR (4-1BB, CD3ζ), SEQ ID NO: 240; tested as CAR T cells (protein)
chain: MALPVTALLLPLALLLHAARPQVQLVESGGGVVQPGGSLRLSCAVSGFRYASYCMGWFRQAPGKGLEGVAAIHSDGIIRYAESVKGRFTISKDNSKNTLYLQMNSLRAEDTAVYYCAAGAYCGADAILTLYDYAFWGQGTLVTVSSGGGGSGGGGSGGGGSEVQLVESGGGLVQPGGSLRLSCAVSEYRYSSRYCMGWFRQAPGKGLEGVSAIDSNGSADYVDSVKGRFTISKDNSKNTLYLQMNSLRAEDTAVYYCAADHLAYDCYSGATSVFRYWGQGTLVTVSSTTTPAPRPPTPAPTIASQPLSLRPEACRPAAGGAVHTRGLDFACDIYIWAPLAGTCGVLLLSLVITLYCKRGRKKLLYIFKQPFMRPVQTTQEEDGCSCRFPEEEEGGCELRVKFSRSADAPAYKQGQNQLYNELNLGRREEYDVLDKRRGRDPEMGGKPRRKNPQEGLYNELQKDKMAEAYSEIGMKGERRRGKGHDGLYQGLSTATKDTYDALHMQALPPR
modifications: expressed in CAR T cells; CAS72052VH5-AS71529VH5-BBz
Q: What does the source list for B1?
A: specific percentage lysis [1]: 83.00±4.58%; cytolytic activity compared with monovalent CAR T cells [2]: equivalent or better cytolytic activity; IFNγ release (SH-SY5Y): high levels of IFNγ; IFNγ release (IMR-32): high levels of IFNγ

B2: CAS71529VH6-AS70950VH6-BBz: bivalent tandem anti-GPC2 CAR (4-1BB, CD3ζ), SEQ ID NO: 242; tested as CAR T cells (protein)
chain: MALPVTALLLPLALLLHAARPEVQLVESGGGLVQPGGSLRLSCAVSEYRYSSRYCMGWFRQAPGKGREGVAAIDSNGSADYVDSVKGRFTISKDNSKNTLYLQMNSLRAEDTAMYYCAADHLAYDCYSGATSVFRYWGQGTLVTVSSGGGGSGGGGSGGGGSEVQLVESGGGLVQPGGSLRLSCAISEFTYKNTCVGWFRQAPGKGREGVAAIDSDGNTNYVDSVKGRFTISQDNSKNTVYLQMNSLRAEDTAMYYCAAGAYCGRLLLWIGNYAYWGQGTLVTVSSTTTPAPRPPTPAPTIASQPLSLRPEACRPAAGGAVHTRGLDFACDIYIWAPLAGTCGVLLLSLVITLYCKRGRKKLLYIFKQPFMRPVQTTQEEDGCSCRFPEEEEGGCELRVKFSRSADAPAYKQGQNQLYNELNLGRREEYDVLDKRRGRDPEMGGKPRRKNPQEGLYNELQKDKMAEAYSEIGMKGERRRGKGHDGLYQGLSTATKDTYDALHMQALPPR
modifications: expressed in CAR T cells; CAS71529VH6-AS70950VH6-BBz
Q: B2 was tested. Which specific percentage lysis [1] did it give?
A: The specific percentage lysis was 70.33±4.93%.

Q: What about the “cytolytic activity compared with monovalent CAR T cells” value [2] of the same molecule?
A: Its value is “equivalent or better cytolytic activity”.

Q: What about the IFNγ release (SH-SY5Y) of the same molecule?
A: The IFNγ release was “high levels of IFNγ”.

Q: What about the IFNγ release (IMR-32) of the same molecule?
A: The IFNγ release was “high levels of IFNγ”.

B3: CAS71529VH5-BBz: humanized VHH anti-GPC2 CAR (4-1BB, CD3ζ), SEQ ID NO: 222; tested as CAR T cells (protein)
chain: MALPVTALLLPLALLLHAARPEVQLVESGGGLVQPGGSLRLSCAVSEYRYSSRYCMGWFRQAPGKGLEGVSAIDSNGSADYVDSVKGRFTISKDNSKNTLYLQMNSLRAEDTAVYYCAADHLAYDCYSGATSVFRYWGQGTLVTVSSTTTPAPRPPTPAPTIASQPLSLRPEACRPAAGGAVHTRGLDFACDIYIWAPLAGTCGVLLLSLVITLYCKRGRKKLLYIFKQPFMRPVQTTQEEDGCSCRFPEEEEGGCELRVKFSRSADAPAYKQGQNQLYNELNLGRREEYDVLDKRRGRDPEMGGKPRRKNPQEGLYNELQKDKMAEAYSEIGMKGERRRGKGHDGLYQGLSTATKDTYDALHMQALPPR
modifications: expressed in CAR T cells; CAS71529VH5-BBz
Q: For B3, which “cytotoxicity against SH-SY5Y” value [1, 3] is on record?
A: Its value is “less than 30%”.

Q: And the “cytotoxicity against IMR-32” value [2, 3]?
A: The value was “less than 30%”.

Q: And the IFNγ release (SH-SY5Y)?
A: Its IFNγ release is “high levels of IFNγ”.

Q: What about the IFNγ release (IMR-32) of the same molecule?
A: The IFNγ release was “high levels of IFNγ”.
